This series deals with the molecule itself. The series can be described thus: SEC-MALS. For orientation: SEC sorts molecules by how far they enter the pores of the column.

B1: BT3796^4S-Gal/GalNAc (enzyme)
chain: QTQKSAQTQRVDKRPNIILFMVDDMGWQDTSLPFWTQKTDYNKLYETPNMERLAKQGMMFTQAYASSISSPTRCSLITGTNAARHRVTNWTLQKNTKTDRKDKVLDVPDWNYNGVSQVPGTNNTFVGTSFVQLLKDSGYHTIHCGKAHFGAIDTPGEDPHHWGFEVNIAGHAAGGLASYLGEENYGHNKDGKPISLMAVPGLEKYWGTETFVTEALTLEAIKALNKAKKYNQPFYLYMSQYAIHVPLDKDKRFYDKYKKKGMTDHEAAYATLIEGMDKSLGDLMDWLEKSGEADNTIIIFMSDNGGLAAESYWRDGKLHTQNHPLNSGKGSTYEGGIREPMIVSWPGVVAPGSKCNDYLLIEDFYPTILEMAGIKKYKTVQPIDGISFMPLLKQTRNPSKGRSLFWNMPNNWGNDGPGINFNCAVRKGDWKLIYYYGTGKKELFNIPDDIGESNDLSAQHPDIVKRLSKELGTYLRKVDAQRPTVKATGKPCPWPDEIK
In general, stoichiometry N refers to the number of molecules, sites or subunits per partner or assembly. For the protein B1, the “stoichiometry N” value stood at 2.

B2: BT3057^4S-Gal/GalNAc (enzyme, Bacteroides thetaiotaomicron, UniProt Q8A397 1-508, looked up)
chain: QERPNIIVFLVDDMGLMDTSVPFIADESGQPVRHPLNDWYHTPNMERLAKQGICFSTFYAQSVSSPSRASIMTGQNATRHGVTNWINAESNNRNPFGPPQWNWKGLRKDMPTMPRVLQQAGYKTIHVGKAHFGCMGSEGENPLNIGFDVNIAGSGIGHPGSYYGEWGYGHIKGQKIRAVPDLEKYHGTDTFLSEALTIEANREITKAVEEKRPFYLNMAHYAVHSPFQADKRFLSRYTDPDKNEQARAFATLIEGMDKSLGDIMDQLEKLGIAENTLILFLGDNGGDAPLGDERGYGSSAPLRGKKGTEFEGGMRVPFIAAWAKPEKKSKVQKNLPIEVGSMQTQLGTIMDIYPTVLSVAGCEVPQNYVIDGFDLKKQLSGKVDKKRPESFLMHFPHAHRGSYFTTYRMGDWKLIYYYLPETPKQPKALLYNLKDDPEERNELSAAHPDQCREMIREMSARLEKEGALYPVDKQGNELKPFVYF
With B2, the “stoichiometry N” value turned out to be 2.

The values are drawn from publication doi:10.1101/2021.07.23.453482 (bioRxiv, 2021).
